# B1: Clone B08: anti-human CD38 antibody, HCVR SEQ ID NO: 33 and LCVR SEQ ID NO: 39 (antibody, V domains shown)
# VH: EVQLVESGGSLVKPGGSLRLSCAASGFTFSNYYMNWVRQAPGKGLEWISSISGSSRSIYYADFVKGRFTISRDNAKNSLYLQMNSLRAEDTAVYYCVRSSDDYYYDYGMDVWGRGTLVTVSS
# VL: QSVLTQPASVSGSPGQSITISCAGTSSDVGGSYSVSWYQQHPGKAPKLMIYDDSNRPSGVSNRFSGSKSGNTASLTISGLQAEDEADYYCSSYTDYSTRVFGGGTKL
# modifications: HCVR B08; LCVR B08
# Columns and labels:
# [1] = test system: human peripheral blood mononuclear cells (PBMCs); assay: IL-10 release from human PBMCs in vitro (ELISA); format: cell-based; settings: PBMCs from 3 healthy donors; 10 μg/ml; LPS 500 ng/mL and interferon-γ 1B 100 ng/mL; 24 hours
# Experimental: 3 healthy volunteers (Donor 1: Donor 2: Donor 3) served as blood donors. Venous blood (5 mL) was collected into heparinized tubes and immediately processed. Briefly, blood was diluted 1/1 in pre-warmed RPMI 1640 medium. PBMCs were isolated using gradient centrifugation in Ficoll solution (Sigma; 300×g, 30 min). Isolated PBMCs were re-suspended in 1 volume of pre-warmed RPMI 1640 medium and centrifuged again (300×g, 30 min). PBMCs were re-suspended in RPMI 1640 medium supplemented with 10% human serum (Sigma-Aldrich) at a concentration of 10^7 cells per mL. Cells were seeded in 96 well microplate (100 μL per well). Test compounds (10 μg/ml), LPS (500 ng/mL) and interferon-γ 1B (100 ng/mL) were added to PBMCs culture immediately after plating. After 24 hours, cell culture supernatants were collected and frozen at −80° C. for further processing.
# IL-10 levels in cell culture supernatants were assayed using an ELISA human IL-10 kit (Ozyme®) according to the indications for use specified by the manufacturer.
# [2] = test system: Dextran Sulfate Sodium (DSS)-induced colitis mouse model; assay: DSS-induced colitis mouse model, colon length; format: in vivo, mice; settings: 15 mg/kg iv when DSS treatment began; 3% DSS for 5 days
# Description: Administration of DSS causes human ulcerative colitis-like pathologies due to its toxicity to colonic epithelial cells, which results in compromised mucosal barrier function. Clinical observations similar to human pathologies, such as weight loss, diarrhea and occult blood in stool, are commonly observed in the DSS model. Moreover, diminution of the colon's length is characteristic of this model.
# Experimental colitis was induced in mice by giving drinking water ad libitum containing 3% (w/v) DSS for 5 days, while control mice received tap water only. Test compounds were intravenously administered (15 mg/kg) when DSS treatment began. Mice were sacrificed 9 days after the beginning of DSS treatment.
# [3] = test system: Experimental Autoimmune Encephalomyelitis (EAE) mouse model; assay: EAE mouse model of multiple sclerosis, clinical score; format: in vivo, mice; settings: 15 mg/kg iv at symptom onset (10 days after MOG injection) and at day 20
# Description: Multiple sclerosis (MS) is a progressive inflammatory and demyelinating disease of the human central nervous system (CNS) in which an important role for the immune system in the pathogenesis of the disease is suspected (Lassmann, 2008. J Neurol Sci. 274(1-2):45-7). EAE is an induced disease in mice that affects the central nervous system and constitutes a model for human MS. After a subcutaneous injection of an emulsion with a Complete Freund's Adjuvant (CFA) mixed with oligodendrocyte membrane proteins like myelin oligodendrocyte glycoprotein (MOG), an immune response starts in the periphery and, within 2 weeks, causes inflammation in the CNS. In the same time, we can observe, a progressive ascending paralysis (tail to hindlimb to forelimb). To determine whether B08 anti-CD38 antibody could have beneficial effect in this disease, we injected this antibody (15 mg/kg at symptom onset (10 days after MOG injection) and at day 20).
# Animals were anesthetized via inhalation with isoflurane (15 min). Mouse were immunized by subcutaneous injection of an emulsion containing 100 μg MOG peptide 35-55 in Complete Freund's Adjuvant and 500 μg HKMT (Heat-killed Mycobacterium tuberculosis) on day 0. Two hours later, animals received an intraperitoneal injection of 500 ng of pertussis toxin on day 0 and day 2. […]
# After immunization, animals were daily monitored for weight and clinical symptoms.
# [4] = test system: dopaminergic neurons of the right substantia nigra pars compacta; assay: 6-OHDA mouse model, number of DA (TH+) neurons; format: in vivo, mice
# Experimental: We aimed at determining whether B08 or D06 anti-CD38 antibodies were neuroprotective in vivo against neurodegeneration induced by oxidative stress. Mouse were administered with 6-hydroxydopamine (6-OHDA) in the right striatum. Since 6-OHDA is an analogue of dopamine, it is transported in dopaminergic neurons through the dopamine transporter, resulting in a specific degeneration and loss of dopaminergic neurons of the right substantia nigra pars compacta. It has been extensively used as a test system for novel symptomatic agents and for assessment of neuroprotective and neurorepair strategies (Galindo et al., 2014. In Kostrzewa (Ed.), Handbook of neurotoxicity (1st Ed., pp. 639-651). New York: Springer-Verlag). Since 6-OHDA is injected unilaterally in the right striatum, left striatum remains unaffected and each mouse is its own control.
# Two in vivo mouse models were used: the 6-OHDA mouse model and the MPTP mouse model. For the 6-OHDA mouse model, the intoxication protocol was based on the unilateral stereotaxic intrastriatal injection of 6-OHDA in the right striatum. Intracerebral or intravenous injections of treatments were made either the day before the surgical stereotaxic procedure, concomitantly with 6-OHDA during the surgical stereotaxic procedure, or two days after 6-OHDA injection. Animals were sacrificed 8 days after the surgical stereotaxic procedure.
# For unilateral 6-OHDA mouse model, animals were anesthetized using Chloral hydrate (400 mg/kg, i.p.) and placed into a stereotactic frame adapted to mice. The injection was performed using a Hamilton syringe at the following coordinates: AP: […], ML: […], DV: […] (corresponding to the atlas of Franklin and Paxinos, 1997). A total volume of 2.5 μL containing or not 5 μg of 6-OHDA diluted in PBS in the presence or the absence of test treatments was injected. The needle was left in place for 10 min after the injection before retraction.
# Mice were sacrificed by cervical dislocation, and beheaded to collect brain and blood samples. The brain was fixed in a paraformaldehyde solution (4%) during 1 day before being soaked in sucrose (30%) during 2 days and then froze at −80° C. for further analysis.
# Each brain was sliced using a freezing microtome at −30° C. The thickness of each slice was 20 μm. The slicing was done around the substantia nigra (80 slices from slice 51 to 63 according to Allen Mouse Brain).
# Slices were then washed out in PBS and incubated with anti-Tyrosine Hydroxylase to stain dopaminergic neurons (Abcam®) during 2 days, at 4° C., with agitation. Slices were incubated with corresponding secondary antibody in the presence of DAPI (Sigma Aldrich®) to stain cell's nuclei during 2 hours at room temperature, and mounted on gelatin-coated slides.
# The slices were imaged using a Nikon TE2000 U equipped with a Hamamatsu ORCE-ER camera or with a Zeiss Axio Vert.A1 equipped with an axiocam 503 mono camera. Image analysis was done using Image J software or Zen (Zeiss®).
molecule,measurement,setting,value
B1,IL-10 release,[1],statistically significantly increased
same,diminution of the colon's length,[2],statistically significantly repressed
same,clinical score compared with PBS-injected mice,[3],significantly reduced
same,protection of dopaminergic neurons of the right substantia nigra pars compacta,[4]; 0.1 mg/kg injected intracerebrally concomitantly with 6-OHDA,statistically significantly protected
same,neuroprotective effect in 6-OHDA model,[4]; 15 mg/kg iv one day before 6-OHDA injection,neuroprotective effect was also observed
same,neuroprotective activity in 6-OHDA model when degeneration is ongoing,[4]; 15 mg/kg iv two days after 6-OHDA injection,strong neuroprotective activity

# Reference: US20220089765A1, “CD31 COMPETITORS AND USES THEREOF” (ENCEFA, priority 2019, published 2022)
